Measured values: publication PMC5582858, “The yeast kinesin-5 Cin8 interacts with the microtubule in a noncanonical manner” (The Journal of Biological Chemistry, 2017)
Where two headings read alike, the source gives them in different places.

Legend:
[1] = substrate: Nc1ncnc2c1ncn2[C@@H]1O[C@H](COP(=O)(O)OP(=O)(O)OP(=O)(O)O)[C@@H](O)[C@H]1O; experiment: NADH-coupled steady-state ATPase assay; assay type: biochemical, Saccharomyces cerevisiae; settings: low ionic strength (21 mM), 20 mM HEPES pH 7.2, 2 mM MgCl2, 7.5 mM KCl, 20% glycerol, 298 K, 25.0 °C
Description: NADH-coupled steady-state ATPase assay on Cin8-His (Cin8 motor domain)

[2] = molecular target: Paclitaxel-stabilized microtubules (bovine brain αβ-tubulin) (bovine) (UniProt Q6B856)
[3] = molecular target: Paclitaxel-stabilized microtubules (bovine brain αβ-tubulin) (bovine) (UniProt Q6B856); experiment: co-sedimentation; 0.5 μM Cin8-His, 0–2 μM microtubules, 1 mM ATP plus ATP regeneration system, low ionic strength (21 mM); fraction bound by NADH-coupled assay; apparent constants
[4] = molecular target: Paclitaxel-stabilized microtubules (bovine brain αβ-tubulin) (bovine) (UniProt Q6B856); experiment: co-sedimentation; 0.5 μM Cin8-His, 0–2 μM microtubules, 1 mM ATP plus ATP regeneration system, high ionic strength (88 mM); fraction bound by NADH-coupled assay; apparent constants
[5] = molecular target: Paclitaxel-stabilized microtubules (bovine brain αβ-tubulin) (bovine) (UniProt Q6B856); experiment: co-sedimentation; 0.5 μM Cin8-His, 0–2 μM microtubules, 1 mM ATP plus ATP regeneration system, low ionic strength (21 mM); fraction bound by NADH-coupled assay; apparent constants; remark: listed apart in the source
[6] = molecular target: Paclitaxel-stabilized microtubules (bovine brain αβ-tubulin) (bovine) (UniProt Q6B856); experiment: co-sedimentation; 0.5 μM Cin8-His, 0–2 μM microtubules, 1 mM ATP plus ATP regeneration system, high ionic strength (88 mM); fraction bound by NADH-coupled assay; apparent constants; remark: listed apart in the source
[7] = molecular target: Paclitaxel-stabilized microtubules (bovine brain αβ-tubulin) (bovine) (UniProt Q6B856); experiment: co-sedimentation; Cin8-His with microtubules, no added nucleotide, low ionic strength (21 mM), 298 K; Cin8 left in the supernatant measured by the NADH coupled ATPase assay; apparent constants
[8] = molecular target: Paclitaxel-stabilized microtubules (bovine brain αβ-tubulin) (bovine) (UniProt Q6B856); experiment: co-sedimentation; Cin8-His with microtubules, no added nucleotide, high ionic strength (88 mM), 298 K; Cin8 left in the supernatant measured by the NADH coupled ATPase assay; apparent constants
[9] = molecular target: Pre-formed microtubule·Eg5 complex (bovine | human) (UniProt Q6B856); experiment: stopped-flow light scattering; 0.5–5 μM Cin8-His rapidly mixed with a pre-formed microtubule·Eg5 complex (0.5 μM Eg5, 0.5 μM microtubules), low ionic strength, 298 K; amplitudes fit to Equation 6, observed rates to Equation 8
[10] = molecular target: Pre-formed microtubule·Eg5 complex (bovine | human) (UniProt Q6B856); experiment: as above; remark: listed apart in the source
[11] = molecular target: Paclitaxel-stabilized microtubules (bovine brain αβ-tubulin) (bovine) (UniProt Q6B856); experiment: co-sedimentation; 4 μM Cin8-trx, 1 μM microtubules, 20 μM paclitaxel; ATPase buffer, without glycerol, plus DTT, PIPES pH 6.9, sodium phosphate pH 7.2, 10 mM NaCl or 10 mM potassium acetate
[12] = molecular target: Paclitaxel-stabilized microtubules (bovine brain αβ-tubulin) (bovine) (UniProt Q6B856); experiment: co-sedimentation; competition: 0–14 μM Cin8-trx added to 2 μM Eg5 and 2 μM microtubules, 60 min at 298 K before centrifugation, low ionic strength; fraction Eg5 bound fit to Equation 5 with Kd,Eg5 fixed; apparent
[13] = molecular target: Paclitaxel-stabilized microtubules (bovine brain αβ-tubulin) (bovine) (UniProt Q6B856); experiment: co-sedimentation; competition: 0–14 μM Cin8-trx added to 2 μM Eg5 and 2 μM microtubules, 60 min at 298 K before centrifugation, high ionic strength; fraction Eg5 bound fit to Equation 5 with Kd,Eg5 fixed; apparent
[14] = molecular target: Paclitaxel-stabilized microtubules (bovine brain αβ-tubulin) (bovine) (UniProt Q6B856); experiment: co-sedimentation; 2 μM kinesin, 0–4 μM paclitaxel-stabilised microtubules, no added nucleotide, high ionic strength (88 mM; ATPase buffer with 75 mM KCl), 298 K, 100,000 × g 30 min; supernatant and pellet by SDS-PAGE; apparent constants, fit to Equation 3
[15] = molecular target: Paclitaxel-stabilized microtubules (bovine brain αβ-tubulin) (bovine) (UniProt Q6B856); experiment: co-sedimentation; 2 μM kinesin, 0–4 μM paclitaxel-stabilised microtubules, no added nucleotide, low ionic strength (21 mM; ATPase buffer with 7.5 mM KCl), 298 K, 100,000 × g 30 min; supernatant and pellet by SDS-PAGE; apparent constants, fit to Equation 3
[16] = molecular target: Paclitaxel-stabilized microtubules (bovine brain αβ-tubulin) (bovine) (UniProt Q6B856); experiment: co-sedimentation; 2 μM kinesin, 0–4 μM paclitaxel-stabilised microtubules, no added nucleotide, high ionic strength (88 mM; ATPase buffer with 75 mM KCl), 298 K, 100,000 × g 30 min; supernatant and pellet by SDS-PAGE; apparent constants, fit to Equation 3; remark: listed apart in the source
[17] = molecular target: Paclitaxel-stabilized microtubules (bovine brain αβ-tubulin) (bovine) (UniProt Q6B856); experiment: co-sedimentation; 2 μM kinesin, 0–4 μM paclitaxel-stabilised microtubules, no added nucleotide, low ionic strength (21 mM; ATPase buffer with 7.5 mM KCl), 298 K, 100,000 × g 30 min; supernatant and pellet by SDS-PAGE; apparent constants, fit to Equation 3; remark: listed apart in the source
[18] = microtubule-stimulated (2 μM bovine brain microtubules, paclitaxel-stabilized)

B1: Cin8-His (Cin8 motor domain) (Saccharomyces cerevisiae S288C) (protein)
chain: NEELNITVAVRCRGRNEREISMKSSVVVNVPDITGSKEISINTTGDTGITAQMNAKRYTVDKVFGPGASQDLIFDEVAGPLFQDFIKGYNCTVLVYGMTSTGKTYTMTGDEKLYNGELSDAAGIIPRVLLKLFDTLELQQNDYVVKCSFIELYNEELKDLLDSNSNGSSNTGFDGQFMKKLRIFDSSTANNTTSNSASSSRSNSRNSSPRSLNDLTPKAALLRKRLRTKSLPNTIKQQYQQQQAVNSRNNSSSNSGSTTNNASSNTNTNNGQRSSMAPNDQTNGIYIQNLQEFHITNAMEGLNLLQKGLKHRQVASTKMNDFSSRSHTIFTITLYKKHQDELFRISKMNLVDLAGSENINRSGALNQRAKEAGSINQSLLTLGRVINALVDKSGHIPFRESKLTRLLQDSLGGNTKTALIATISPAKVTSEETCSTLEYASKAKNIKNKPQLGSFIMKDILVKNIT
notes: motor domain residues 70-535; N-terminal His6 and TEV site tags kept; expressed in E. coli B834(DE3); monomeric in solution
- Km [1, 18]: 29 ± 16 µM
- kcat [1, 18]: 0.38 ± 0.04 s^−1 site^−1

B2: Cin8-His (Cin8 motor domain) (Saccharomyces cerevisiae S288C; DEL254-353/DEL32-69/INS253NNNNNSS) (protein)
chain: ISINTTGDTGITAQMNAKRYTVDKVFGPGASQDLIFDEVAGPLFQDFIKGYNCTVLVYGMTSTGKTYTMTGDEKLYNGELSDAAGIIPRVLLKLFDTLELQQNDYVVKCSFIELYNEELKDLLDSNSNGSSNTGFDGQFMKKLRIFDSSTANNTTSNSASSSRSNSRNSSPRSLNDLTPKAALLNNNNNSSSSRSHTIFTITLYKKHQDELFRISKMNLVDLAGSENINRSGALNQRAKEAGSINQSLLTLGRVINALVDKSGHIPFRESKLTRLLQDSLGGNTKTALIATISPAKVTSEETCSTLEYASKAKNIKNKPQLGSFIMKDILVKNITMELAKIKSDLLSTKSKEGIYMSQDHYKNLNSDLESYKN
notes: as for B1
- Km ([1]; microtubule-stimulated): 45 ± 4 µM
- kcat ([1]; microtubule-stimulated): 0.36 ± 0.22 s^−1 site^−1

B3: Cin8-His (S. cerevisiae kinesin-5 Cin8 motor domain, residues 70–535, with N-terminal His6 and TEV cleavage tags) (domain or fragment)
chain: ISINTTGDTGITAQMNAKRYTVDKVFGPGASQDLIFDEVAGPLFQDFIKGYNCTVLVYGMTSTGKTYTMTGDEKLYNGELSDAAGIIPRVLLKLFDTLELQQNDYVVKCSFIELYNEELKDLLDSNSNGSSNTGFDGQFMKKLRIFDSSTANNTTSNSASSSRSNSRNSSPRSLNDLTPKAALLRKRLRTKSLPNTIKQQYQQQQAVNSRNNSSSNSGSTTNNASSNTNTNNGQRSSMAPNDQTNGIYIQNLQEFHITNAMEGLNLLQKGLKHRQVASTKMNDFSSRSHTIFTITLYKKHQDELFRISKMNLVDLAGSENINRSGALNQRAKEAGSINQSLLTLGRVINALVDKSGHIPFRESKLTRLLQDSLGGNTKTALIATISPAKVTSEETCSTLEYASKAKNIKNKPQLGSFIMKDILVKNITMELAKIKSDLLSTKSKEGIYMSQDHYKNLNSDLESYKN
- K0.5,MT of the microtubule-stimulated steady-state ATPase (NADH coupled assay), 21 mM ionic strength [2]: 0.08 µM
- K0.5,MT of the microtubule-stimulated steady-state ATPase (NADH coupled assay), 88 mM ionic strength [2]: 1.8 µM
- Kd [3]: 140 nM
- stoichiometry N [3]: 3.7
- Kd [4]: 960 nM
- stoichiometry N [4]: 6.1
- Kd [5]: 110 nM
- Kd [6]: 1600 nM
- Kd [7]: 260 nM
- stoichiometry N [7]: 3.1
- Kd [8]: 180 nM
- stoichiometry N [8]: 3
- kon [9]: 1.1e+06 M⁻¹ s⁻¹
- K0.5 (Cin8 concentration at half-maximal light-scattering amplitude) [10]: 0.27 µM
- koff [10]: 3.1 s⁻¹
- kon [10]: 1e+06 M⁻¹ s⁻¹

B4: Cin8-trx (Cin8 motor domain, residues 70–535, fused to N-terminal thioredoxin (TrxA), His6, TEV cleavage and Arg9 tags) (domain or fragment)
chain: B3 chain
- stoichiometry N [11]: 4
- Kd [12]: 2 nM
- Kd [13]: 590 nM
- Kd [14]: 130 nM
- stoichiometry N [14]: 4
- Kd [15]: 1 nM
- stoichiometry N [15]: 5.1
- stoichiometry N [16]: 3 to 5
- Kd [17]: 13 nM
